Measured values reported in US10398755.

Tests used:
[1] = molecular target: Pro-MMP-9 (recombinant) (Mus musculus (Mouse)) (UniProt P41245); experiment: CLU-His pull-down with anti-His tag antibody beads, gelatin zymography, densitometry; reference: MMP-9 and MMP-9-ΔC
[2] = molecular target: Pro-MMP-9 (recombinant) (Mus musculus (Mouse)) (UniProt P41245); experiment: cell-based or functional assay

Sequence of mouse CLU with C-terminal (His)6 (CLU-His), recombinant secreted clusterin (Q06890 other isoform, or with tags, fused parts or gaps): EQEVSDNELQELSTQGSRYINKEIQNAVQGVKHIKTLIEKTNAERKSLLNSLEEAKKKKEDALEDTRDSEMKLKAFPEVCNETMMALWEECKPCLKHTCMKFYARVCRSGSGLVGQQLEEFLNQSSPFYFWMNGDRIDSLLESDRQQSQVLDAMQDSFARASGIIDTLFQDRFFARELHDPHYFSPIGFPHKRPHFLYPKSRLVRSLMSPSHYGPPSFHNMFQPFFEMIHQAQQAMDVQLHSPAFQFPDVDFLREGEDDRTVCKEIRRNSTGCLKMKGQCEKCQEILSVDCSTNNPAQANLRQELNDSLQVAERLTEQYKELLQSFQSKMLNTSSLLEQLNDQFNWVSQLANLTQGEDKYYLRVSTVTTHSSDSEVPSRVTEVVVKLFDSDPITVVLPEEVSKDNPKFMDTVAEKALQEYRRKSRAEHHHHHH

fold stronger affinity for CLU than the other forms of MMP-9 (band densities, Image J) [1]: > 10 times
inhibition of MMP-9 activity; FRET peptide substrate, average of three independent experiments, CLU 50 µg/ml [2]: 35%
inhibition of MMP-9 activity; FRET peptide substrate, pro-MMP-9 with APMA, 3 h, CLU 50 µg/ml (0.63 µM) [2]: 28%
Substance: mouse CLU with C-terminal (His)6 (CLU-His), recombinant secreted clusterin (from UniProt Q06890 22-448)
